Assay results taken from US20250230247A1 (DREN BIO, published 2025).

T1: human Dectin-1 isoform A (human, UniProt Q9BXN2 1-247)
T1 construct: also called hDectin-1a; Dectin-1 on HEK-Blue hDectin-1a cells
T1 sequence: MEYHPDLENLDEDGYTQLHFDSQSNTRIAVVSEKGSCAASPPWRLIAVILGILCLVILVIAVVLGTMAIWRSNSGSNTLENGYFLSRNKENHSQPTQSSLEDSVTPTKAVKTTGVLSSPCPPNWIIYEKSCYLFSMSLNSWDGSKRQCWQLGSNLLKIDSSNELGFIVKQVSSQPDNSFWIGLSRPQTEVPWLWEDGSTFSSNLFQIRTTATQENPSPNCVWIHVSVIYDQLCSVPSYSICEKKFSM

T2: Trop-2 (human, UniProt P09758 27-323)
T2 construct: whole, on cells; also called Trop-2 on A431, HeLa, BxPC-3, SiHa and Capan-2 cells
T2 sequence (looked up): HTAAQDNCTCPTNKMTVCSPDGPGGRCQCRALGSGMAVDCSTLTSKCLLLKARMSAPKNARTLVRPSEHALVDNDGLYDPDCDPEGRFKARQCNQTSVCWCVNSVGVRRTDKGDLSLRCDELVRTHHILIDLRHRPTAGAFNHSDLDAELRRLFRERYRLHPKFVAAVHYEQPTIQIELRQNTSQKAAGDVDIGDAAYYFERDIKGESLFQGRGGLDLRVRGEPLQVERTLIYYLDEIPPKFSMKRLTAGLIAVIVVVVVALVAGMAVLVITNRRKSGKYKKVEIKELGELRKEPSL

T3: human Dectin-1 (biosensor tests of Tables 3, 4A and 9; construct not stated) (human, UniProt Q9BXN2 66-247, limits assumed)
T3 construct: also called hDectin-1
T3 sequence (looked up): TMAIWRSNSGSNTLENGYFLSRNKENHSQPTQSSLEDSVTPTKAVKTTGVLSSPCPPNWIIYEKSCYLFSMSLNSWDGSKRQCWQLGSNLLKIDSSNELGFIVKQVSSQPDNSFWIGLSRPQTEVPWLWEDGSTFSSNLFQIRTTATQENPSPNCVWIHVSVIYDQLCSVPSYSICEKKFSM


What was measured:
[1] = molecular target: T1, human Dectin-1 isoform A; assay: flow cytometry on HEK Blue Dectin 1a cells (MFI)
[2] = molecular target: T2, Trop-2; assay: flow cytometry on Capan-2 cells, AF647 goat anti-human secondary, 4PL fit; curve reaches about 1,720,000 MFI at 300 nM and starts to flatten
Procedure: (§1) The secondary antibody (AF647 goat Anti-Human) was used for detection by flow cytometry. Binding EC50 was determined using four-parameter logistic (4PL) non-linear regression.

[3] = molecular target: T2, Trop-2; assay: flow cytometry on BxPC-3 cells, AF647 goat anti-human secondary, 4PL fit; curve still rising (about 3,500,000 MFI) at the highest concentration, 300 nM
Procedure: as §1

[4] = molecular target: T2, Trop-2; assay: flow cytometry on A431 cells (MFI)
[5] = molecular target: T2, Trop-2; assay: flow cytometry on HeLa cells, AF647 goat anti-human secondary, 4PL fit; curve plateaus at about 145,000 MFI at 100-300 nM
Procedure: as §1

[6] = molecular target: T2, Trop-2; assay: flow cytometry on SiHa cells, AF647 goat anti-human secondary, 4PL fit; curve still rising (about 89,000 MFI) at the highest concentration, 300 nM
Procedure: as §1

[7] = molecular target: T3, human Dectin-1 (biosensor tests of …); assay: Fab K dis, run 1
[8] = molecular target: T3, human Dectin-1 (biosensor tests of …); assay: Fab K dis, run 2
[9] = molecular target: T3, human Dectin-1 (biosensor tests of …); assay: Fab K dis, average of 3
[10] = molecular target: T3, human Dectin-1 (biosensor tests of …); assay: Fab K dis, run 3
[11] = molecular target: T3, human Dectin-1 (biosensor tests of …); assay: Fab K dis, run 1; remark: listed apart in the source
[12] = molecular target: T3, human Dectin-1 (biosensor tests of …); assay: Fab K dis, average of 3; remark: listed apart in the source
[13] = molecular target: T3, human Dectin-1 (biosensor tests of …); assay: Fab K dis, run 3; remark: listed apart in the source
[14] = molecular target: T3, human Dectin-1 (biosensor tests of …); assay: Fab K dis, run 2; remark: listed apart in the source
[15] = molecular target: T3, human Dectin-1 (biosensor tests of …); assay: Octet response; on X = 340: time not given here; on X = 470: time not given here
[16] = molecular target: T3, human Dectin-1 (biosensor tests of …); assay: Octet, single point off rate fit
Source text: Recombinant human-Dectin-1 mouse Fc fusion was captured first using anti-mouse IgG octet biosensors. […] Biosensor tip was them moved into buffer to monitor dissociation step for 120 seconds.

[17] = molecular target: T3, human Dectin-1 (biosensor tests of …); assay: Octet
Procedure: Variant binding domains were generated, and binding affinity to human Dectin-1 was measured by biosensor (Octet). Single point off rate fits (k off) were determined for each clone and compared to the parental clone (delta), as shown in FIG. 71.
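Wherever delta is given: Single-point dissociation rate (koff) fit for each variant binding domain, expressed as change versus the parental clone.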

Row | Binder | EC50 [4] [nM] | koff [7] [s⁻¹] | koff [8] [s⁻¹] | koff [9] [s⁻¹] | koff [10] [s⁻¹] | other results
1 | 2M24/Trop-2 hIgG1 bispecific antibody (bispecific antibody, V domains shown, human IgG1; also called anti-Dectin-1 (2M24)/anti-Trop-2 bispecific antibody) VH 1: QVQLVQSGAEVKKPGASVKVSCKSSGYTFTDYYIHWVRQAPGQGLEWMGWINPNSGDTNYAQKFQGRITMTRDTSISTAYLELSRLRSDDTAVFYCARNSGSYSFGYWGQGTLVTVSS VL 1: DIQMTQSPSSVSASVGDRVTITCRASQGISSWLAWYQQKPGKAPKLLIFGASSLQSGVPSRFSGSGSGTDFTLTVSSLQPEDFATYYCQQAYSFPFTFGPGTKVDIE VH 2: QVQLQQSGSELKKPGASVKVSCKASGYTFTNYGMNWVKQAPGQGLKWMGWINTYTGEPTYTDDFKGRFAFSLDTSVSTAYLQISSLKADDTAVYFCARGGFGSSYWYFDVWGQGSLVTVSS VL 2: DIQLTQSPSSLSASVGDRVSITCKASQDVSIAVAWYQQKPGKAPKLLIYSASYRYTGVPDRFSGSGSGTDFTLTISSLQPEDFAVYYCQQHYITPLTFGAGTKVEIK | 9.04 |  |  |  |  | EC50 [1]: 0.958 nM; EC50 [2]: 59.4 nM; EC50 [3]: 348 nM; EC50 [5]: 26.2 nM; EC50 [6]: 77.4 nM
2 | 2M24.116/Trop2 bispecific antibody (bispecific antibody, V domains shown, hIgG1) VH 1: QVQLVQSGAEVKKPGASVKVSCKASGYTFTDYYMHWVRQAPGQGLEWMGWINPNEGDTNYAQKFQERITMTRDTSISTAYMELSRLRSDDTAVYYCARNTGAYSFGYWGQGTLVTVSS VL 1: DIQMTQSPSSVSASVGDRVTITCRASQGISSWLAWYQQKPGKAPKLLIYGASDLQSGVPSRFSGSGSGTDFTLTISSLQPEDFATYYCHQAYSFPFTFGPGTKVDIK VH 2: QVQLQQSGSELKKPGASVKVSCKASGYTFTNYGMNWVKQAPGQGLKWMGWINTYTGEPTYTDDFKGRFAFSLDTSVSTAYLQISSLKADDTAVYFCARGGFGSSYWYFDVWGQGSLVTVSS VL 2: DIQLTQSPSSLSASVGDRVSITCKASQDVSIAVAWYQQKPGKAPKLLIYSASYRYTGVPDRFSGSGSGTDFTLTISSLQPEDFAVYYCQQHYITPLTFGAGTKVEIK | 8.35 |  |  |  |  | EC50 [1]: 1.76 nM
3 | 2M24A.28 hFab H6 (Fab, V domains shown, Fab; also called 2M24.H6) VH: not shown VL: DIQMTQSPSSVSASVGDRVTITCRASQGISSWLAWYQQKPGKAPKLLIFGASSLQSGVPSRFSGSGSGTDFTLTVSSLQPEDFATYYCQQAYSFPFTFGPGTKVDIE |  |  |  |  |  | koff [11]: 0.00412 s⁻¹; koff [12]: 0.00221 s⁻¹; koff [13]: 0.00151 s⁻¹; koff [14]: 0.000995 s⁻¹
4 | 2M24A.1.15 (Fab, V domains shown, Fab; also called 2M24.1.15) VH: QVQLVQSGAEVKKPGASVKVSCKSSGYTFTDYYIHWVRQAPGQGLEWMGWINPNSGDTNYAQKFQGRITMTRDTSISTAYLELSRLRSDDTAVFYCAANSGSYSFGYWGQGTLVTVSS VL: DIQMTQSPSSVSASVGDRVTITCRASQGISSWLAWYQQKPGKAPKLLIFGASSLQSGVPSRFSGSGSGTDFTLTVSSLQPEDFATYYCQQAYSFPFTFGPGTKVDIE |  |  |  |  |  | X = 290 [15]: 0.082; X = 350 [15]: 0.0314; koff [16]: 0.0239 s⁻¹; delta [17]: 62%
5 | 2M24.119/Trop2 bispecific antibody (bispecific antibody, V domains shown, hIgG1) VH 1: QVQLVQSGAEVKKPGASVKVSCKASGYTFTDYYMHWVRQAPGQGLEWMGWINPNEGDTNYAQKFEGRITMTRDTSISTAYMELSRLRSDDTAVYYCARNTGAYSFGYWGQGTLVTVSS VL 1: DIQMTQSPSSVSASVGDRVTITCRASQGISSWLAWYQQKPGKAPKLLIYGASDLQSGVPSRFSGSGSGTDFTLTISSLQPEDFATYYCQQAYGFPFTFGPGTKVDIK VH 2: QVQLQQSGSELKKPGASVKVSCKASGYTFTNYGMNWVKQAPGQGLKWMGWINTYTGEPTYTDDFKGRFAFSLDTSVSTAYLQISSLKADDTAVYFCARGGFGSSYWYFDVWGQGSLVTVSS VL 2: DIQLTQSPSSLSASVGDRVSITCKASQDVSIAVAWYQQKPGKAPKLLIYSASYRYTGVPDRFSGSGSGTDFTLTISSLQPEDFAVYYCQQHYITPLTFGAGTKVEIK | 7.87 |  |  |  |  | EC50 [1]: 1.3 nM
6 | 2M24A.1.14 hFab (Fab, V domains shown, Fab; also called 2M24.1.14) VH: QVQLVQSGAEVKKPGASVKVSCKSSGYTFTDYYIHWVRQAPGQGLEWMGWINPNSGDTNYAQKFQGRITMTRDTSISTAYLELSRLRSDDTAVFYCARNSGSASFGYWGQGTLVTVSS VL: DIQMTQSPSSVSASVGDRVTITCRASQGISSWLAWYQQKPGKAPKLLIFGASSLQSGVPSRFSGSGSGTDFTLTVSSLQPEDFATYYCQQAYSFPFTFGPGTKVDIE |  |  |  |  |  | X = 340 [15]: 0.106; X = 470 [15]: 0; koff [16]: 0.313 s⁻¹; delta [17]: 100%

Now from value to binder, other results behind:

Row | EC50 [4] [nM] | koff [7] [s⁻¹] | koff [8] [s⁻¹] | koff [9] [s⁻¹] | koff [10] [s⁻¹] | Binder | other results
7 | 5.21 |  |  |  |  | parental anti-Trop2 monospecific antibody (antibody, V domains shown) VH: QVQLQQSGSELKKPGASVKVSCKASGYTFTNYGMNWVKQAPGQGLKWMGWINTYTGEPTYTDDFKGRFAFSLDTSVSTAYLQISSLKADDTAVYFCARGGFGSSYWYFDVWGQGSLVTVSS VL: DIQLTQSPSSLSASVGDRVSITCKASQDVSIAVAWYQQKPGKAPKLLIYSASYRYTGVPDRFSGSGSGTDFTLTISSLQPEDFAVYYCQQHYITPLTFGAGTKVEIK | 
8 |  | 0.00635 | 0.00236 | 0.0037 | 0.00239 | 2M24A.31 hFab L2 (Fab, V domains shown, Fab; also called 2M24.L2) VH: QVQLVQSGAEVKKPGASVKVSCKSSGYTFTDYYIHWVRQAPGQGLEWMGWINPNSGDTNYAQKFQGRITMTRDTSISTAYLELSRLRSDDTAVFYCARNSGSYSFGYWGQGTLVTVSS VL: DIQMTQSPSSVSASVGDRVTITCRASQGISSWLAWYQQKPGKAPKLLIYGASSLQSGVPSRFSGSGSGTDFTLTISSLQPEDFATYYCQQAYSFPFTFGPGTKVDIE | 
9 |  | 0.00631 | 0.00208 | 0.00351 | 0.00213 | 2M24A.30 hFab L1 (Fab, V domains shown, Fab; also called 2M24.L1) VH: QVQLVQSGAEVKKPGASVKVSCKSSGYTFTDYYIHWVRQAPGQGLEWMGWINPNSGDTNYAQKFQGRITMTRDTSISTAYLELSRLRSDDTAVFYCARNSGSYSFGYWGQGTLVTVSS VL: DIQMTQSPSSVSASVGDRVTITCRASQGISSWLAWYQQKPGKAPKLLIFGASSLQSGVPSRFSGSGSGTDFTLTISSLQPEDFATYYCQQAYSFPFTFGPGTKVDIE | 
10 |  | 0.00671 | 0.00223 | 0.00376 | 0.00233 | 2M24A.32 hFab L3 (Fab, V domains shown, Fab; also called 2M24.L3) VH: QVQLVQSGAEVKKPGASVKVSCKSSGYTFTDYYIHWVRQAPGQGLEWMGWINPNSGDTNYAQKFQGRITMTRDTSISTAYLELSRLRSDDTAVFYCARNSGSYSFGYWGQGTLVTVSS VL: DIQMTQSPSSVSASVGDRVTITCRASQGISSWLAWYQQKPGKAPKLLIFAASSLQSGVPSRFSGSGSGTDFTLTISSLQPEDFATYYCQQAYSFPFTFGPGTKVDIE | 
11 |  | 0.00615 | 0.00278 | 0.00402 | 0.00314 | 2M24A.33 hFab L4 (Fab, V domains shown, Fab; also called 2M24.L4) VH: QVQLVQSGAEVKKPGASVKVSCKSSGYTFTDYYIHWVRQAPGQGLEWMGWINPNSGDTNYAQKFQGRITMTRDTSISTAYLELSRLRSDDTAVFYCARNSGSYSFGYWGQGTLVTVSS VL: DIQMTQSPSSVSASVGDRVTITCRASQGISSWLAWYQQKPGKAPKLLIYAASSLQSGVPSRFSGSGSGTDFTLTISSLQPEDFATYYCQQAYSFPFTFGPGTKVDIE | 
